In article PMC7430637 (2020):

How the values were obtained:
recombinant hUHRF1 [1] = biological target: T1, recombinant hUHRF1 (human, UniProt Q96T88-1 1-793); experiment: MST
T1 chain: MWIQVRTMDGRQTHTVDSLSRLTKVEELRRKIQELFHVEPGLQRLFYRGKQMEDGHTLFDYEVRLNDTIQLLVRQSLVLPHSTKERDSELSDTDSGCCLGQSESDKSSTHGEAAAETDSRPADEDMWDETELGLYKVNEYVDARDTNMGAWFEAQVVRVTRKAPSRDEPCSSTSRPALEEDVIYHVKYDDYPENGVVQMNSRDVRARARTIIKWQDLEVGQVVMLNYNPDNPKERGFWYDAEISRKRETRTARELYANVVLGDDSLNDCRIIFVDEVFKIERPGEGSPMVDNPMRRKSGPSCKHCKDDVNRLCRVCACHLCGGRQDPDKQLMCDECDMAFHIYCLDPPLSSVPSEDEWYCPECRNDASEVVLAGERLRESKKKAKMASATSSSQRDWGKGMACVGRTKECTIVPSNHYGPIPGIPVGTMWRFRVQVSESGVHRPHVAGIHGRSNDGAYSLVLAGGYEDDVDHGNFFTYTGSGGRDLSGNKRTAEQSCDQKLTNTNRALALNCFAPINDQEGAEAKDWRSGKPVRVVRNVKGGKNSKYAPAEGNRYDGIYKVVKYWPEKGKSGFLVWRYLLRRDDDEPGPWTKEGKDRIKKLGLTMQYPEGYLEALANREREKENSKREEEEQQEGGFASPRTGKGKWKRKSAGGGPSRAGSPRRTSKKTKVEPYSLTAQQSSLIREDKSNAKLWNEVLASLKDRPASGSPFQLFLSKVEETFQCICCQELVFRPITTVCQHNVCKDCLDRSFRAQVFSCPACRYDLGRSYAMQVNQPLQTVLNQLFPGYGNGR

recombinant mUHRF1 V1 [2] = biological target: T2, recombinant mUHRF1 V1 (mouse, UniProt Q8VDF2 1-782); experiment: MST
T2 chain: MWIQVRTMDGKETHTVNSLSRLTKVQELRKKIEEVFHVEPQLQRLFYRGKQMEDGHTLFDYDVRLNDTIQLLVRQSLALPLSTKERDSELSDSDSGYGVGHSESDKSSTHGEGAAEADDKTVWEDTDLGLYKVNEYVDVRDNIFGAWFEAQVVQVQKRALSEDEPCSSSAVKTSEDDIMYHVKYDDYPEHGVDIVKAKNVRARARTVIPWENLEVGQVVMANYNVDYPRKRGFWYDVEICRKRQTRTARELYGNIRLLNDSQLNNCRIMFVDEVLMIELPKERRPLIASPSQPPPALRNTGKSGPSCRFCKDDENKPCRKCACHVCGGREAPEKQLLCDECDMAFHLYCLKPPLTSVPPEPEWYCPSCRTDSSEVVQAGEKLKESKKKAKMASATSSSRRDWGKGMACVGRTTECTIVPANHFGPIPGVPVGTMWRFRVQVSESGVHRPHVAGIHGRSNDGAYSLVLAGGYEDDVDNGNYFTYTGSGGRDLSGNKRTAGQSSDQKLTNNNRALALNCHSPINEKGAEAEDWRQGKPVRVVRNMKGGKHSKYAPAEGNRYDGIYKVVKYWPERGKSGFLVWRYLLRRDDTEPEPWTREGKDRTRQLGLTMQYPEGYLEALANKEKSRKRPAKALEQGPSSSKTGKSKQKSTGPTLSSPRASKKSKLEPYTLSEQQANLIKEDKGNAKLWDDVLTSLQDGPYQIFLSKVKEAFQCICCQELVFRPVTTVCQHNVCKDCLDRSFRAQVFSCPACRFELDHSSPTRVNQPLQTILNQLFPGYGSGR

recombinant mUHRF1 V2 [3] = biological target: T3, recombinant mUHRF1 V2 (mouse); experiment: MST
T3 chain: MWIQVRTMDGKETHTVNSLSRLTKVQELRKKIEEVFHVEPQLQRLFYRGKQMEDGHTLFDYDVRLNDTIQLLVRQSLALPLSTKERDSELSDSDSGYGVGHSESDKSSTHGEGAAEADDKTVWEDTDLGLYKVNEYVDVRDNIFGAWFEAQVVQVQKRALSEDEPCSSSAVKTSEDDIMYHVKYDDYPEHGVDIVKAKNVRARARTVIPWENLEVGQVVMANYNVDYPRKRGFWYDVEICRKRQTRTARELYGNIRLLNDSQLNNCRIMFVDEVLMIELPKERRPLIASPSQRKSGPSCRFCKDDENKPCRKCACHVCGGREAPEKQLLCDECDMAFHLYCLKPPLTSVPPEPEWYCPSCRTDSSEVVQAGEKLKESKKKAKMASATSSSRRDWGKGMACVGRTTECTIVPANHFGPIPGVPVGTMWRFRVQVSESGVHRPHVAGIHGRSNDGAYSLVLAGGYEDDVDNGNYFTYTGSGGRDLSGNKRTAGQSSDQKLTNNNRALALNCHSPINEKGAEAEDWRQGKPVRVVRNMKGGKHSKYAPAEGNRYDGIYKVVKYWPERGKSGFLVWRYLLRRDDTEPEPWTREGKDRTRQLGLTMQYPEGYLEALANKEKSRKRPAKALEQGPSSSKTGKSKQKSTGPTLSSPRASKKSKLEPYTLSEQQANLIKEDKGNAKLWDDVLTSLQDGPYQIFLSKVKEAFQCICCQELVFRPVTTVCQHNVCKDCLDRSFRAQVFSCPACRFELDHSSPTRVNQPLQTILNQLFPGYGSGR

recombinant hUHRF1 [4] = biological target: T1, recombinant hUHRF1; experiment: MST; + 100-fold molar excess PI5P
recombinant mUHRF1 V1 [5] = biological target: T2, recombinant mUHRF1 V1; experiment: MST; + 100-fold molar excess PI5P
recombinant mUHRF1 V2 [6] = biological target: T3, recombinant mUHRF1 V2; experiment: MST; + 100-fold molar excess PI5P

ARTKQTARKSTGGKA (trimethyl-lysine at K9) [H3K9me3 peptide (titrated in MST)]
Kd (recombinant hUHRF1 [1]): 1.5 µM
Kd (recombinant mUHRF1 V1 [2]): 1.4 µM
Kd (recombinant mUHRF1 V2 [3]): 4 µM
Kd (recombinant hUHRF1 [4]): 0.08 µM
Kd (recombinant mUHRF1 V1 [5]): 2.6 µM
Kd (recombinant mUHRF1 V2 [6]): 8.1 µM
